From patent US9587002B2, “Sequence of nucleotides and peptides GSE 24.2 of dyskerin, which can induce telomerase activity, method for obtaining same, therapeutic compositions and applications thereof” (CONSEJO SUPERIOR DE INVESTIGACIONES CIENTIFICAS, priority 2005, dated 2017)
Entries after “also recorded” stand apart in the source; their conditions may differ.

Key:
293T cells = assay: Cell viability of 293T cell lines treated with cisplatin (crystal violet); format: cell-based, human; conditions: 293T cells stably expressing the construct vs empty vector pLNCX; cisplatin 0-100 μg/ml, 72 hours
Experimental: FIG. 2.—Cell viability and activation of the JNK and p38 death pathways in 293T cell lines: pLNCX and 24.2, treated with cisplatin. A) Cell viability. After seeding the 293T cells: expressing the empty vector (pLNCX) and GSE 24.2 (24.2) in 24-well plates, they were incubated with concentrations between 0-100 μg/ml of cisplatin. The cell viability was measured by means of the crystal violet technique after 72 hours of exposure to the drug. The data represent the mean of two experiments performed in quadruplicate. B) Activation kinetics. Subsequently, the activation of JNK and p38 was studied using antibodies that specifically recognise the active forms. As a load control, the levels of JNK-1 were detected.
FIG. 4.—Viability of the 293T cell lines: pLNCX, 24.2, DSK5′ and DSK treated with cisplatin. The cell lines described above (pLNCX and 24.2), the DSK 5′ cell line, which expresses a fragment of dyskerin described in the preceding figure, and a fourth one that overexpresses the complete cDNA of dyskerin (DSK) have been used. The viability was analyzed as shown in FIG. 1 A. The data represent the mean of two experiments performed in quadruplicate. […]
Growth curves. […] The number of cells was determined by estimating the absorbance at 595 nm. […]

hTERT = assay: RT-PCR of hTERT in VA13 cells; format: cell-based; conditions: transient transfection
Experimental: FIG. 10.—Telomerase activity and expression levels of hTERT and hTR in the cells of patients with dyskeratosis congenita and in VA13 cells transiently transfected with the 24.2 plasmid or the pLNCX empty vector. A) Telomerase activity measured by means of the TRAP assay in the cells of patients with dyskeratosis congenita (DC-1, DC-2 and DC-3) and in the carrier parent (DC-C) following electroporation of 45 μg of the pLNCX empty plasmid (−) or the pLNCX 24.2 vector (+) by 15 million cells. B) RT-PCR of the RNA from cells of one of the patients with dyskeratosis congenita, DC3 transfected with the empty vector and DC3 transfected with the 24.2 plasmid, using oligos specific for hTERT and hTR. As a starting RNA control, oligos for the amplification of GAPDH were used. C) Telomerase activity in VA13 cells. The cells were transiently transfected with 16 μg of the control pLNCX empty vector, expressing DKC or the GSE 24.2 peptide per million cells. 24 hours later, the telomerase activity was analysed as described above, using dilutions of the protein extracts from each transfection. D) The expression levels of hTERT and hTR in VA13 cells transfected with 16 μg of the different construct per million cells. RNA levels were detected as described above. GAPDH was used as a control. […] After 24 h of transfection, the luciferase activity was analyzed as described above. […]

B1: GSE 24.2: 165-pb cDNA fragment (nucleotides 268 to 433) of human dyskerin, SEQ ID NO1, encoding peptide SEQ ID NO2, expressed from pLNCX plasmid (nucleic acid, listed as Homo sapiens)
DNA: GGTTTCATTAATCTTGACAAGCCCTCTAACCCCTCTTCCCATGAGGTGGTAGCCTGGATTCGACGGATACTTCGGGTGGAGAAGACAGGGCACAGTGGTACTCTGGATCCCAAGGTGACTGGTTGTTTAATCGTGTGCATAGAACGAGCCACTCGCTTGGTGAAG
modifications: expressed from pLNCX plasmid; CDS (1)..(165) Sequence GSE 24.2
cell viability in response to cisplatin (293T cells): greater viability in response to cisplatin; also recorded: survival capacity to cisplatin
expression of hTERT RNA in VA13 cells (hTERT): capable of recovering
